Laboratory results as given in patent US20240207216A1, “COMPOSITIONS AND METHOD FOR TREATING GUT PERMEABILITY CAUSED BY HYDROGEN SULFIDE PRODUCING BACTERIA” (UNM RAINFOREST INNOVATIONS, priority 2022, published 2024).

How the values were obtained:
[1] = test system: Desulfovibrio desulfuricans; settings: cited from earlier work
[2] = test system: Snail; assay: DSV-induced Snail protein expression by Western blot; format: cell-based, Human; settings: IAP 500 U/ml pre-treatment 24 h, DSV 24 h; vs DSV+Veh
Method: FIG. 16. Rapamycin reduces DSV-induced Snail protein expression. Polarized Caco-2 cells were treated with 100 nM rapamycin for two hours, followed by DSV infection (MOI 20) for 24 hours. Cells were harvested and lysed. (A) Protein lysate was analyzed for Snail expression by Western blotting. (B) Quantitation of Snail expression from Western blot in (A). DSV: 7.14±0.73; DSV+Rapamycin: 3.10±0.74, **p<0.01.
Human colonic epithelial cells Caco-2 were purchased from the American Type Culture Collection (ATCC, Manassas, VA). Cells were grown in DMEM+20% FBS+penicillin and streptomycin (Thermo Fisher Scientific, Inc., Waltham, MA). Cells were grown at 37° C. in a humidified incubator with 5% CO2. To allow polarization and differentiation, cells were seeded at a density of 5×10^3 cells/well in 12-well 0.4 μm trans-well inserts for three weeks. Twenty-four hours before infection, growth medium was replaced with colorless medium (DMEM+20^0/o FBS) without antibiotics. […]
Cells were lysed in lysis buffer (Thermo Fisher Scientific, Inc., Waltham, MA; catalog #87787) containing protease and phosphatase inhibitors (Thermo Fisher Scientific, Inc., Waltham, MA; catalog #1861281) for 20 minutes at 4° C. with shaking. […] Protein concentration in the supernatants was determined with Bradford reagent (Bio-Rad Laboratories, Inc., Hercules, CA). […]

[3] = test system: occludin; assay: Occludin localization by immunofluorescence in DSV-infected cells; format: cell-based, Human; settings: IAP pre-treatment, DSV infection (DSV+IAP)
[4] = test system: Snail; assay: DSV-induced Snail nuclear localization by immunofluorescence; format: cell-based, Human; settings: IAP pre-treatment, DSV infection; vs DSV+Veh
Method: FIG. 5. Intestinal Alkaline Phosphatase inhibits DSV-induced permeability by inhibiting Snail. Polarized Caco-2 cells were pre-treated with IAP (500 U/ml) at the apical and the basolateral surface for 24 hours prior to challenge with D. vulgaris. (A) FITC-dextran was added to the cells apically after 24 hours infection with D. vulgaris. Fluorescence was measured by taking out 100 μl medium from the basolateral surface after one-hour incubation. Graph represents Mean±SEM of % FITC-flux compared to uninfected control cells from at least three independent experiments. **p<0.01. (B) Snail protein expression was analyzed by Western blotting in cells pre-treated with or without IAP followed by infection with D. vulgaris. The solution in which IAP was supplied was used as a Vehicle control. Actin was used as a loading control. (C) Quantification of Western blot for detection of Snail. Graph represents Mean±SEM of ratio of Snail/Actin and values were normalized to control from at least three independent experiments. *p<0.05. (D) Cells were pre-treated with or without IAP followed by infection with D. vulgaris. Cells were fixed with 4% paraformaldehyde and probed by immunofluorescence for Snail staining. Graph represents quantification of % cells showing nuclear staining of Snail in control, DSV+Vehicle (Veh), or DSV+IAP treated groups. […]

[5] = test system: polarized Caco-2 cells; assay: DSV-induced paracellular permeability, 4 kDa FITC-dextran flux; format: cell-based, Human; settings: IAP 500 U/ml apical and basolateral, 24 h before DSV MOI 20 for 24 h; vs DSV+Veh
Method: FIG. 7. Rapamycin reduces DSV-induced paracellular permeability. Human Caco-2 cells were grown in 0.4 μm trans-well inserts for three weeks to generate polarized intestinal epithelial monolayers. Cells were treated with 100 nM rapamycin, an inducer of autophagy, for two hours followed by DSV infection (MOI 20) for 24 hours. Barrier integrity was assessed by measuring paracellular flux of 4 kDa FITC-Dextran.
Human colonic epithelial cells Caco-2 were purchased from the American Type Culture Collection (ATCC, Manassas, VA). Cells were grown in DMEM+20% FBS+penicillin and streptomycin (Thermo Fisher Scientific, Inc., Waltham, MA). Cells were grown at 37° C. in a humidified incubator with 5% CO2. […]
Tight junction barrier integrity in 21-day old polarized Caco-2 cells grown in 12-well trans-well plates was assessed via transepithelial electric resistance (TEER) using EVOM meter (World Precision Instruments, LLC, Sarasota, FL). […] Paracellular permeability was quantified by measuring FITC-dextran flux (Fluorescein isothiocyanate-dextran 4000 (FD-4), Sigma-Aldrich, St. Louis, MO). […] After one hour of incubation, 100 μl of the basolateral medium was collected and analyzed for the presence of FITC fluorescence. Fluorescence was measured at the wavelengths of excitation at 485 nm and emission at 520 nm using a plate reader (Synergy HTX Multi-Mode Reader, BioTek, Winooski, VT). […]

Molecule: [Bi] [bismuth]
- growth of Desulfovibrio desulfuricans [1]: inhibits the growth

B1: intestinal alkaline phosphatase (protein, UniProt P09923 20-503, looked up)
Intestinal-type alkaline …: VIPAEEENPAFWNRQAAEALDAAKKLQPIQKVAKNLILFLGDGLGVPTVTATRILKGQKNGKLGPETPLAMDRFPYLALSKTYNVDRQVPDSAATATAYLCGVKANFQTIGLSAAARFNQCNTTRGNEVISVMNRAKQAGKSVGVVTTTRVQHASPAGTYAHTVNRNWYSDADMPASARQEGCQDIATQLISNMDIDVILGGGRKYMFPMGTPDPEYPADASQNGIRLDGKNLVQEWLAKHQGAWYVWNRTELMQASLDQSVTHLMGLFEPGDTKYEIHRDPTLDPSLMEMTEAALRLLSRNPRGFYLFVEGGRIDHGHHEGVAYQALTEAVMFDDAIERAGQLTSEEDTLTLVTADHSHVFSFGGYTLRGSSIFGLAPSKAQDSKAYTSILYGNGPGYVFNSGVRPDVNESESGSPDYQQQAAVPLSSETHGGEDVAVFARGPQAHLVHGVQEQSFVAHVMAFAACLEPYTACDLAPPACTTD
notes: host defense protein produced by enterocytes in the small intestine
- Snail protein expression [2]: significantly reduced
- occludin staining [3]: comparable to control
- percentage of cells with nuclear localization of Snail [4]: significant reduction
- D. vulgaris-induced FITC-dextran flux [5]: inhibited
